Patent US20170112792A1 (BETH ISRAEL DEACONESS MEDICAL CENTER, published 2017)
Where a chain is given by its changes, count along the chain named.

T1: IRAKM, overexpressed, from IL-33-treated cells (UniProt Q9Y616 1-596, phosphoserine at 110 (LC-MS/MS of the GST-Pin1-bound protein))
T1 construct: also called WT IRAKM
T1 sequence (looked up): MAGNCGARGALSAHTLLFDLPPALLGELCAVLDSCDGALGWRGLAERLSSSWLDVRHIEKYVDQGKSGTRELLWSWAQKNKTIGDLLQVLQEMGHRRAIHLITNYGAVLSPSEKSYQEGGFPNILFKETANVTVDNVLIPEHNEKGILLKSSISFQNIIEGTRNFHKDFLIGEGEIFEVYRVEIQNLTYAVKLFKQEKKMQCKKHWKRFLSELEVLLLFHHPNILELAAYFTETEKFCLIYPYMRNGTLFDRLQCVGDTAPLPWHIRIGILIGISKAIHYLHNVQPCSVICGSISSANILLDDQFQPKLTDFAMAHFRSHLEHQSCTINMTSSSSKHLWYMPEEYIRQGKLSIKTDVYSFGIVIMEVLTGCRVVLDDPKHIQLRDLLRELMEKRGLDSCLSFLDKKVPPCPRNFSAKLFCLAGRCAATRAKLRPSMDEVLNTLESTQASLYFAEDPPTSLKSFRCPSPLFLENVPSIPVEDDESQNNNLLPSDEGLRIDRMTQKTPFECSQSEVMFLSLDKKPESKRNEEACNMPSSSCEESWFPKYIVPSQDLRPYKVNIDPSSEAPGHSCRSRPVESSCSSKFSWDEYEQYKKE

T2: myc-MKP3 (UniProt Q16828 1-381)
T2 construct: also called MAP kinase phosphatase 3; not shown: myc tag
T2 sequence (looked up): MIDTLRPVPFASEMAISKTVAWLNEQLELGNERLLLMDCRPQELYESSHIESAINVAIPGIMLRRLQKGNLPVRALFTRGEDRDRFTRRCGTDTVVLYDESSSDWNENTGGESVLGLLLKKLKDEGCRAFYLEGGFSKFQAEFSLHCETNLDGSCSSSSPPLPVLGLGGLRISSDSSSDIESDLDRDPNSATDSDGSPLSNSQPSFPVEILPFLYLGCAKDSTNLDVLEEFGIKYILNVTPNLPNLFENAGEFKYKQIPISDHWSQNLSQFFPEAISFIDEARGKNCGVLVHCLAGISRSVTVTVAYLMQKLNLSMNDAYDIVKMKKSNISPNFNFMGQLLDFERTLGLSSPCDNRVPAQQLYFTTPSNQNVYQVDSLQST

T3: IRAKM P111A (UniProt Q9Y616 1-596)
T3 construct: also called P111A mutant; P111 mutation
T3 sequence (looked up): T1 sequence (looked up) with P111A

T4: IRAKM S110E peptide (IRAKM residues 103-124 with the S110E substitution)
T4 construct: Synthetic peptide; also called IRAKM Ser110E
T4 peptide: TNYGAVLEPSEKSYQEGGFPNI

B1: GFP-PPlase (other)
chain: GKNGQGEPARVRCSHLLVKHSQSRRPSSWRQEKITRTKEEALELINGYIQKIKSGEEDFESLASQFSDCSSAKARGDLGAFSRGQMQKPFEDASFALRTGEMSGPVFTDSGIHIILRTE
notes: also called GFP fused the Pin1 peptidyl-prolyl cis-trans isomerase (PPlase) domain; GFP-PPlase domain; not shown: GFP
B2: Erk1 (enzyme, human, UniProt P27361 1-379, looked up)
chain: MAAAAAQGGGGGEPRRTEGVGPGVPGEVEMVKGQPFDVGPRYTQLQYIGEGAYGMVSSAYDHVRKTRVAIKKISPFEHQTYCQRTLREIQILLRFRHENVIGIRDILRASTLEAMRDVYIVQDLMETDLYKLLKSQQLSNDHICYFLYQILRGLKYIHSANVLHRDLKPSNLLINTTCDLKICDFGLARIADPEHDHTGFLTEYVATRWYRAPEIMLNSKGYTKSIDIWSVGCILAEMLSNRPIFPGKHYLDQLNHILGILGSPSQEDLNCIINMKARNYLQSLPSKTKVAWAKLFPKSDSKALDLLDRMLTFNPNKRITVEEALAHPYLEQYYDPTDEPVAEEPFTFAMELDDLPKERLKELIFQETARFQPGVLEAP
notes: entries are written once for Erk1 and once for Erk2; also called Erk1/2 (member Erk1); total Erk1/2
B3: Flag-Rab2A (enzyme, UniProt P61019 1-212, looked up)
chain: MAYAYLFKYIIIGDTGVGKSCLLLQFTDKRFQPVHDLTIGVEFGARMITIDGKQIKLQIWDTAGQESFRSITRSYYRGAAGALLVYDITRRDTFNHLTTWLEDARQHSNSNMVIMLIGNKSDLESRREVKKEEGEAFAREHGLIFMETSAKTASNVEEAFINTAKEIYEKIQEGVFDINNEANGIKIGPQHAATNATHAGNQGGQQAGGGCC
notes: Expressed in HEK293/293T or HMLE cells; also called Flag-tagged wild-type Rab2A; not shown: Flag tag
B4: GST-Rab2A (wild type) (enzyme, UniProt P61019 1-212, looked up)
chain: B3 chain
notes: also called wild-type GST-Rab2A fusion protein; not shown: GST tag
B5: GST-Rab2A mut1/2 (enzyme, UniProt P61019 1-212, looked up)
chain: B3 chain with K29A, R30A, L37A, I39A
notes: not shown: GST tag
B6: endogenous Rab2A (HMLE cells) (enzyme, human, UniProt P61019 2-212, looked up)
chain: AYAYLFKYIIIGDTGVGKSCLLLQFTDKRFQPVHDLTIGVEFGARMITIDGKQIKLQIWDTAGQESFRSITRSYYRGAAGALLVYDITRRDTFNHLTTWLEDARQHSNSNMVIMLIGNKSDLESRREVKKEEGEAFAREHGLIFMETSAKTASNVEEAFINTAKEIYEKIQEGVFDINNEANGIKIGPQHAATNATHAGNQGGQQAGGGCC
B7: Pin1, endogenous in DC2.4 cells (enzyme, mouse, UniProt Q9QUR7 1-165, looked up)
chain: MADEEKLPPGWEKRMSRSSGRVYYFNHITNASQWERPSGGSTVGGSSKNGQGEPAKVRCSHLLVKHSQSRRPSSWRQEKITRSKEEALELINGYIQKIKSGEEDFESLASQFSDCSSAKARGDLGPFSRGQMQKPFEDASFALRTGEMSGPVFTDSGIHIILRTE
B8: 15N-labeled Pin1 WW domain (Pin1 residues 1-50) (other, UniProt Q13526 1-50, looked up)
chain: MADEEKLPPGWEKRMSRSSGRVYYFNHITNASQWERPSGNSSSGGKNGQG
modifications: uniformly 15N-labeled
notes: range 1-50; also called 15N-Pin1-WW; 15N-Pin1 WW

Legend:
[1] = target: T1, IRAKM, overexpressed, from …; experiment: co-IP with anti-GFP antibody from IL-33-treated HEK293 cells co-expressing IRAKM, western blot for IRAKM
[2] = target: T2, myc-MKP3; experiment: competition co-IP: Flag IP of 293T lysates with a constant dose of Flag-Rab2A (competitor) and falling doses of myc-MKP3, western blot for Erk1/2
[3] = target: B2; experiment: Flag co-IP from HEK293 cells transfected with Flag-Rab2A with or without AcMEK1, western blot
[4] = target: T5, Erk2 (human, UniProt P28482 1-360); experiment: as above
T5 construct: entries are written once for Erk1 and once for Erk2; also called Erk1/2 (member Erk2); total Erk1/2

[5] = target: T6, p-Erk1 (phosphorylated Erk1) (human, UniProt P27361 2-379, phosphorylated (p-Erk1/2, induced by constitutively active MEK1); sites not given); experiment: as above
T6 construct: also called p-Erk1/2 (member Erk1)

[6] = target: T7, p-Erk2 (phosphorylated Erk2) (human, UniProt P28482 2-360, phosphorylated (p-Erk1/2, induced by constitutively active MEK1); sites not given); experiment: as above
T7 construct: also called p-Erk1/2 (member Erk2)

[7] = target: B2; experiment: GST pull-down of endogenous Erk1/2 from cell lysate, western blot
[8] = target: T5, Erk2; experiment: as above
[9] = target: B2; experiment: reciprocal co-IP of endogenous proteins from HMLE lysate, western blot; the Erk1/2 strip does not separate Erk1 from Erk2
[10] = target: T5, Erk2; experiment: as above
[11] = target: T3, IRAKM P111A; experiment: co-IP with anti-IRAKM antibody from DC2.4 cells stably expressing P111A, western blot for Pin1
[12] = target: T4, IRAKM S110E peptide (IRAKM residues …); experiment: NMR titration, 1H-15N HSQC chemical shift changes

T5 sequence (P28482 whole entry): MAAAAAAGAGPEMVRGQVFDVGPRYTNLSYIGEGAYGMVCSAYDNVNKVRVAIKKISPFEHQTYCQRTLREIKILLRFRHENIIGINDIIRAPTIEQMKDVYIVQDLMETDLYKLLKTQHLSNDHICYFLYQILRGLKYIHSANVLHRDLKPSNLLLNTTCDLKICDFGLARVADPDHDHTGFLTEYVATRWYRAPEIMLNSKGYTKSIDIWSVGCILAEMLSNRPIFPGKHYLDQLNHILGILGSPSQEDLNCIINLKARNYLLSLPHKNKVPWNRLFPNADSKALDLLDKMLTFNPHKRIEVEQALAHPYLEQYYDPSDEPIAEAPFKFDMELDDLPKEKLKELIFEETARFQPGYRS
T7 sequence (P28482 2-360 limits assumed): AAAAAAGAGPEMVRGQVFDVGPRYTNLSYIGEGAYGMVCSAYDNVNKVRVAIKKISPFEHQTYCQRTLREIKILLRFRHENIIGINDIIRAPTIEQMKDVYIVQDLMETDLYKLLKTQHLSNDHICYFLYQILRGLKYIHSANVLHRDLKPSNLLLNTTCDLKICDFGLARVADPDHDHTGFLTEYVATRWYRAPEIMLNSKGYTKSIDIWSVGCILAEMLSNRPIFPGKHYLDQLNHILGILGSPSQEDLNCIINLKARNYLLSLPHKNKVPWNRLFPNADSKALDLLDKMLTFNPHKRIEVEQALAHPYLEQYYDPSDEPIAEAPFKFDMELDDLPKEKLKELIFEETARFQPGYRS

Binder: B1
binding result [1]: no binding

Binder: B2
binding result [2]: binds

Binder: B3
binding result [3]: binds
binding result [4]: binds
binding result [5]: binds
binding result [6]: binds

Binder: B4
binding result [7]: binds
binding result [8]: binds

Binder: B5
binding result [7]: no binding
binding result [8]: no binding

Binder: B6
binding result [9]: binds
binding result [10]: binds

Binder: B7
binding result [11]: no binding

Binder: B8
Kd [12]: 1510 µM
